Measurements taken from patent US12383631B2, “Immune antigen specific IL-18 immunocytokines and uses thereof” (Bright Peak Therapeutics AG, priority 2022, dated 2025).
Positions count from the first letter of the chain named. In names and notes the source's numbering stands.

T1: human IL-18 binding protein isoform a (IL-18BPa) (Homo sapiens, UniProt O95998)
T1 sequence (O95998 31-194): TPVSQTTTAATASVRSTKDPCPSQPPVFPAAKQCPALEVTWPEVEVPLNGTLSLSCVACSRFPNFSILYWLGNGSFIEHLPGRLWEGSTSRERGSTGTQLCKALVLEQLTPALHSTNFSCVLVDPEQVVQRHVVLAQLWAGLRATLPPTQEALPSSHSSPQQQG

T2: human IL-18BP (Homo sapiens, UniProt O95998)
T2 sequence (O95998 31-194): T1 sequence (O95998 31-194)

B1: C155: IL-18 polypeptide: V11I, C38A, D40A, K53A, C76A, C127A (protein)
chain: YFGKLESKLSIIRNLNDQVLFIDQGNRPLFEDMTDSDARANAPRTIFIISMYADSQPRGMAVTISVKCEKISTLSAENKIISFKEMNPPDNIKDTKSDIIFFQRSVPGHDNKMQFESSSYEGYFLAAEKERDLFKLILKKEDELGDRSIMFTVQNED
B2: C160: IL-18 polypeptide: V11I, C38A, K53A, C76A, D110A, C127A (protein)
chain: B1 chain with A40D, D110A
B3: C157: IL-18 polypeptide: V11I, C38A, K53A, C76A, C127A, D132A (protein)
chain: B1 chain with A40D, D132A
B4: C163: IL-18 polypeptide: V11I, C38A, C76A, Q103K, C127A (protein)
chain: B1 chain with A40D, A53K, Q103K
B5: C153: IL-18 polypeptide: V11I, D37A, C38A, K53A, C76A, C127A (protein)
chain: B1 chain with D37A, A40D
B6: C151: IL-18 polypeptide: V11I, D35A, C38A, K53A, C76A, C127A (protein)
chain: B1 chain with D35A, A40D
B7: C143: IL-18 polypeptide: V11I, C38A, K53A, C76A, C127A (protein)
chain: B1 chain with A40D
B8: C159: IL-18 polypeptide: V11I, C38A, K53A, C76A, H109A, C127A (protein)
chain: B1 chain with A40D, H109A
B9: C164: IL-18 polypeptide: V11I, C38A, S55H, C76A, C127A (protein)
chain: B1 chain with A40D, A53K, S55H
B10: C154: IL-18 polypeptide: V11I, E31A, D37A, C38A, K53A, C76A, C127A (protein)
chain: B1 chain with E31A, D37A, A40D
B11: C158: IL-18 polypeptide: V11I, C38A, K53A, C76A, G108A, C127A (protein)
chain: B1 chain with A40D, G108A
B12: C165: IL-18 polypeptide: V11I, C38A, S55R, C76A, C127A (protein)
chain: B1 chain with A40D, A53K, S55R
B13: C162: IL-18 polypeptide: K8E, V11I, C38A, C76A, Q103R, C127A (protein)
chain: B1 chain with K8E, A40D, A53K, Q103R
B14: C167: IL-18 polypeptide: V11I, C38A, C76A, S105I, C127A (protein)
chain: B1 chain with A40D, A53K, S105I
B15: C166: IL-18 polypeptide: V11I, C38A, S55T, C76A, C127A (protein)
chain: B1 chain with A40D, A53K, S55T
B16: C149: IL-18 polypeptide: V11I, E31A, C38A, K53A, C76A, C127A (protein)
chain: B1 chain with E31A, A40D
B17: C145: IL-18 polypeptide: V11I, C38A, K53A, S55A, C76A, C127A (protein)
chain: B1 chain with A40D, S55A
B18: C156: IL-18 polypeptide: V11I, C38A, N41A, K53A, C76A, C127A (protein)
chain: B1 chain with A40D, N41A
B19: C147: IL-18 polypeptide: V11I, C38A, K53A, D54A, C76A, C127A (protein)
chain: B1 chain with A40D, D54A
B20: C148: IL-18 polypeptide: F2A, V11I, C38A, K53A, C76A, C127A (protein)
chain: B1 chain with F2A, A40D
B21: C150: IL-18 polypeptide: V11I, T34A, C38A, K53A, C76A, C127A (protein)
chain: B1 chain with T34A, A40D
B22: C168: IL-18 polypeptide: V11I, C38A, C76A, S105K, C127A (protein)
chain: B1 chain with A40D, A53K, S105K
B23: C144: IL-18 polypeptide: V11I, C38A, K53A, T63A, C76A, C127A (protein)
chain: B1 chain with A40D, T63A
B24: SEQ ID NO: 68: IL-18 polypeptide: V11I, C38A, M51G, K53A, C76A, C127A (protein)
chain: B1 chain with A40D, M51G
B25: C161: IL-18 polypeptide: K8R, V11I, C38A, C76A, Q103E, C127A (protein)
chain: B1 chain with K8R, A40D, A53K, Q103E
B26: C152: IL-18 polypeptide: V11I, S36A, C38A, K53A, C76A, C127A (protein)
chain: B1 chain with S36A, A40D
B27: C177: IL-18 polypeptide: E6K, V11I, C38A, I49R, K53A, T63A, C76A, C127A (protein)
chain: B1 chain with E6K, A40D, I49R, T63A
B28: C178: IL-18 polypeptide: E6K, V11I, C38A, K53A, T63A, C76A, Q103R, C127A (protein)
chain: B1 chain with E6K, A40D, T63A, Q103R

Each molecule was assayed against T1, human IL-18 binding protein isoform a (IL-18BPa) (assay: IL-18 Binding Protein inhibition cellular assay in NK-92 cells (Example 4 / 17C)). Settings: inhibition by IL-18BP of IFNγ stimulation in NK92 cells.
Format: cell-based
Method: The NK cell line NK-92 derived from a patient with lymphoma (ATCC® CRL-2407™) is cultured in aMEM medium supplemented with 20% FCS-Glutamax, 25 μM β-mercaptoethanol, and 100 IU/mL of recombinant human IL-2.
On the day of experiment, cells are harvested and washed with aMEM medium without IL-2 and containing 1 ng/mL of recombinant human IL-12. After counting, the cells are seeded at 100,000 cells/well in a 384 well titer plate and incubated at 37° C./5% CO2. Sixteen 2-fold serial dilutions of Fc-fused human IL-18 binding protein isoform a (IL-18BPa) are prepared in aMEM medium. 1 ng/mL of IL-12 containing 2 nM of each modified IL-18 polypeptide variant is added to the NK-92 cells. The final IL-18 analyte concentration is 1 nM, and the final IL-18BPa concentration ranged from 566 nM to 17 pM.
After incubating the cells for 16-20 hr at 37° C./5% CO2, 5 μL of the supernatant is carefully transferred to a 384 microwell OptiPlate. IFNγ levels are measured using a human IFNγ AlphaLISA Assay Kit. Briefly, 10 μL of 2.5× AlphaLISA anti-IFNγ acceptor beads and biotinylated antibody anti-IFNγ mix are added to 5 μL of NK-92 supernatants. The mixtures are incubated for 1 hr at room temperature with shaking. Under subdued light, 2.5 μL of 2×SA donor beads are pipetted in each well and incubated for 30 min at room temperature with shaking. AlphaLISA signals are then measured on an EnSpire™ plate reader using 680 nm and 615 nm as excitation and emission wavelengths, respectively. Half maximal inhibitory concentrations (IC50) are calculated based on a variable slope and four parameter analysis using GraphPad PRISM software.
17C—IFNγ Stimulation and IL-18BP Inhibition Assay—The experiments described in Example 4 for determination of IFNg stimulation in NK92 cells (and inhibition by IL-18 BP) were performed substantially as described on modified IL-18 polypeptides in order to assess their activities and their suitability for incorporation into immunocytokine compositions.

Row | IC50 [nM] | Molecule
1 | 3.23 | B1
2 | 3.18 | B2
3 | 6.08 | B3
4 | 0.823 | B4
5 | 2.22 | B5
6 | 3.62 | B6
7 | 1.62 | B7
8 | 1.81 | B8
9 | 0.456 | B9
10 | 3.71 | B10
11 | 3.98 | B11
12 | 0.885 | B12
13 | 7.29 | B13
14 | 0.809 | B14
15 | 0.44 | B15
16 | 1.17 | B16
17 | 10.2 | B17
18 | 0.681 | B18
19 | 47.6 | B19
20 | 5.05 | B20
21 | 21.3 | B21
22 | 0.176 | B22
23 | 7.52 | B23
24 | 733 | B24
25 | 1.07 | B25
26 | 7.85 | B26

These molecules were tested against T2, human IL-18BP (assay: IL-18BP binding AlphaLISA assay (Example 4 / 17B)). Settings: IL-18 binding protein AlphaLISA.
Method: A human IL-18BP AlphaLISA Assay Kit is used to determine the binding affinity of each immunocytokine and IL-18 variant for IL-18BP, which detected the presence of free form IL-18BP.
Sixteen three-fold serial dilutions of IL-18 analytes are prepared in aMEM medium supplemented with 20% FCS, Glutamax, and 25 μM β-mercaptoethanol in the presence of 5 ng/mL of His-tagged human IL-18BP. Final IL-18 analytes concentration range from 2778 nM to 0.2 pM.
After 1 hr incubation at room temperature, free IL-18BP levels are measured using a […]. In a 384 well OPTIplate, 5 μL of 5× Anti-IL-18BP acceptor beads are added to 7.5 μL of an IL-18/IL-18BP mix. After 30 min incubation at room temperature with shaking, 5 μL of biotinylated Anti-IL-18BP antibodies are added to each well. The plate is incubated further for 1 hr at room temperature. Under subdued light, 12.5 μL of 2× streptavidin (SA) donor beads are pipetted into each well, and the wells are incubated with shaking for an additional 30 min at room temperature. The AlphaLisa signal is then measured on an Enspire plate reader with 680 and 615 nm as excitation and emission wavelengths, respectively. The dissociation constant (KD) is calculated based on a variable slope, four parameter analysis using GraphPad PRISM software.
17B—IL-18 BP AlphaLISA assay—An IL-18 binding protein AlphaLISA experiment substantially as described in Example 4 was performed on IL-18 polypeptide which can be incorporated into immunocytokine compositions as provided herein to assess ability to bind to IL-18BP.

Row | Kd [nM] | Molecule
27 | > 2800 | B27
28 | > 2800 | B28
